Source: paper PMC12160003 (Cell, 2025)
Where two headings read alike, the source gives them in different places.

B1: Human Recombinant GST-METTL14 (natural protein, UniProt Q9HCE5 1-456, looked up)
chain: MDSRLQEIRERQKLRRQLLAQQLGAESADSIGAVLNSKDEQREIAETRETCRASYDTSAPNAKRKYLDEGETDEDKMEEYKDELEMQQDEENLPYEEEIYKDSSTFLKGTQSLNPHNDYCQHFVDTGHRPQNFIRDVGLADRFEEYPKLRELIRLKDELIAKSNTPPMYLQADIEAFDIRELTPKFDVILLEPPLEEYYRETGITANEKCWTWDDIMKLEIDEIAAPRSFIFLWCGSGEGLDLGRVCLRKWGYRRCEDICWIKTNKNNPGKTKTLDPKAVFQRTKEHCLMGIKGTVKRSTDGDFIHANVDIDLIITEEPEIGNIEKPVEIFHIIEHFCLGRRRLHLFGRDSTIRPGWLTVGPTLTNSNYNAETYASYFSAPNSYLTGCTEEIERLRPKSPPPKSKSDRGGGAPRGGGRGGTSAGRGRERNRSNFRGERGGFRGGRGGAHRGGFPPR
B2: Flag-tagged recombinant human METTL14 protein (natural protein, UniProt Q9HCE5 1-456, looked up)
chain: B1 chain

Experiments:
[1] = molecular target: T1, Flag/His-tagged recombinant human DNMT1 protein (human, UniProt P26358 1-1616); assay: co-IP
T1 sequence (P26358 whole entry): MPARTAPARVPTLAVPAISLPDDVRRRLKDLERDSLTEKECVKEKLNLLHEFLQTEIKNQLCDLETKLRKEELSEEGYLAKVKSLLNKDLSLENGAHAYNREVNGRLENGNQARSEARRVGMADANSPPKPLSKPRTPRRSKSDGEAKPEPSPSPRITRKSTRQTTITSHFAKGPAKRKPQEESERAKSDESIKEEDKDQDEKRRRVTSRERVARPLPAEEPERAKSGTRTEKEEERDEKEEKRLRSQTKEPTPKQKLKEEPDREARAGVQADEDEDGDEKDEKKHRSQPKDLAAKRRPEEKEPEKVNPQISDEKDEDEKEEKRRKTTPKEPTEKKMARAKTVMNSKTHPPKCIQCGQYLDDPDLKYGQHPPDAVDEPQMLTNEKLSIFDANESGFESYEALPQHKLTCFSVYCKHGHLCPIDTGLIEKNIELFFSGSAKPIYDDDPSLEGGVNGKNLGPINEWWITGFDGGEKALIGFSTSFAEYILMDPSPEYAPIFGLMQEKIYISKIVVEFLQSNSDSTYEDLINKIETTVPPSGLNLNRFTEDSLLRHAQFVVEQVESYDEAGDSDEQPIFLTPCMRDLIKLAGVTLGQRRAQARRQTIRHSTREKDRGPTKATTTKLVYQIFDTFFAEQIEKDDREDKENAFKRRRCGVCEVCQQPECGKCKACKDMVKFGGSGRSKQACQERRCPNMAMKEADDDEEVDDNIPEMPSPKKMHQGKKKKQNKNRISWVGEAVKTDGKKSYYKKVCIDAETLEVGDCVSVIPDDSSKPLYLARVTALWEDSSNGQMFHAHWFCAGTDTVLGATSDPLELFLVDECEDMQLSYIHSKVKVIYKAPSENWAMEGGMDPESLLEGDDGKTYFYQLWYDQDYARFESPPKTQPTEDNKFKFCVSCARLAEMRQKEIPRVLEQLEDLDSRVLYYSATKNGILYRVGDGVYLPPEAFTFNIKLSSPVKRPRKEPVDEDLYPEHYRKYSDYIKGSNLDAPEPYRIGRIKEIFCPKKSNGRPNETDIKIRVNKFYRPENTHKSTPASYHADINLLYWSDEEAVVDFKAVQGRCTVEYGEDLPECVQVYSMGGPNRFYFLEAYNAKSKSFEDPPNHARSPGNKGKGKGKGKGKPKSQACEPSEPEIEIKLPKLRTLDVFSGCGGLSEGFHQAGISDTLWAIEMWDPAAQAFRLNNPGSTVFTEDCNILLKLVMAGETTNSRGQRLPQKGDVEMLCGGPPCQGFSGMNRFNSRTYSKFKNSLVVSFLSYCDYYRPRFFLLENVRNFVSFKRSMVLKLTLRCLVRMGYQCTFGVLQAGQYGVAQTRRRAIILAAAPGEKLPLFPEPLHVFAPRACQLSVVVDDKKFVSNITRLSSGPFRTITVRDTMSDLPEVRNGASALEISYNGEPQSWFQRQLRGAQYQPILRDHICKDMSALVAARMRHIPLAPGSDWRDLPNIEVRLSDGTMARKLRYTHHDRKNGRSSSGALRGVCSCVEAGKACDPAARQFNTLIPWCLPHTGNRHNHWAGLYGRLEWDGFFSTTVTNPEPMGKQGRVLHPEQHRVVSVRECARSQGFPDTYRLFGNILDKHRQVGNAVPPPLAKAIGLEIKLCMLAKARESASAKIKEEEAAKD

[2] = molecular target: T1, Flag/His-tagged recombinant human DNMT1 …; assay: co-IP; remark: listed apart in the source

Binder	binding result [1]	binding result [2]
B1	binds	–
B2	–	binds
